Reference: patent US20190367612A1 (Daiichi Sankyo, published 2019)

Assays:
[1] = molecular target: T1, amino-terminal peptide of cynomolgus monkey GPRC5D …(Biotin)-NH2 (cynomolgus monkey, C-terminal lysine carrying biotin, C-terminal amide); test: ELISA, biotinylated peptide on NeutrAvidin
T1 construct: also called amino-terminal peptide of biotinylated cynomolgus monkey GPRC5D
T1 peptide: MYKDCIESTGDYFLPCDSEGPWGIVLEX
Procedure: (§1) NeutrAvidin diluted to 1 μg/mL with PBS was added in an amount of 50 μL/well to 96-well Maxi-sorp plate, and the plate was left standing overnight at 4° C. for immobilization. After washing three times with an ELISA buffer, the amino-terminal peptide of the biotinylated human or cynomolgus monkey GPRC5D (used in Example 10)-1) diluted to 1 μg/mL with PBS was added thereto, and the plate was shaken at room temperature for 1 hour. After washing three times with an ELISA buffer, the plate was blocked with Blocker Casein and washed three times with an ELISA buffer. Then, the culture solution of the IgG-expressing FreeStyle 293F cells was added to the plate and reacted at room temperature for 2 hours. After washing three times with an ELISA buffer, a horseradish peroxidase (HRP)-labeled anti-human Fab antibody (Jackson ImmunoResearch Laboratories, Inc.) diluted 2500-fold with ELISA buffer was added thereto in an amount of 50 μL/well and reacted at room temperature for 1 hour. After washing five times with an ELISA buffer, SuperSignal Pico ELISA Chemiluminescent substrate was added. After 10 minutes, the chemiluminescence was measured using a plate reader.

human GPRC5D = molecular target: T2, human GPRC5D (human, UniProt Q9NZD1 1-345); test: flow cytometry on KHM-1B cells (human GPRC5D), PE anti-human IgG Fc detection, rMFI = MFI minus isotype control
T2 construct: whole, on cells; also called hGPRC5D; G-protein coupled receptor family C group 5 member D
Procedure: Human multiple myeloma cell line KHM-1B cells expressing GPRC5D were adjusted to a concentration of 2×10⁶ cells/mL with PBS containing 5% FBS, inoculated in an amount of 100 μL/well to a 96-well U-bottomed microplate, and centrifuged to remove the supernatant. The culture supernatant of each human anti-GPRC5D antibody (full-length IgG form containing C2037, C3048, C3015, or C3022) obtained in Example 10)-5 or Human IgG isotype control antibody (Calbiochem/Merck Millipore Corp.) adjusted to 14 ng/mL to 30 μg/mL was added thereto in an amount of 100 μL/well, and the plate was left standing at 4° C. for 1 hour. The cells were washed twice with PBS containing 5% FBS. Then, R-Phycoerythrin AffiniPure F(ab′)2 Fragment Goat Anti-Human IgG, Fcγ Fragment Specific (Jackson ImmunoResearch Laboratories, Inc.) diluted 100-fold with PBS containing 5% FBS was added thereto in an amount of 100 μL/well, and the plate was left standing at 4° C. for 1 hour. The cells were washed twice with PBS containing 5% FBS and then resuspended in PBS containing 5% FBS, followed by detection using a flow cytometer (FACSCanto™ II; Becton, Dickinson and Company). The data was analyzed using Flowjo (Tree Star, Inc.). The PE fluorescence intensity of the cell fraction was plotted to a histogram, and the mean fluorescence intensity (MFI) was calculated. The MFI value of the control antibody was subtracted from the MFI value of the GPRC5D antibody to calculate a relative value of MFI (rMFI).

[2] = molecular target: T3, human GPRC5D amino-terminal peptide MYKDCIESTGDYFLLCDAEGPWGIILE-K(Biotin)-NH2, having an intramolecular … (human, C-terminal lysine carrying biotin, C-terminal amide; intramolecularly formed disulfide bond); test: ELISA, chemiluminescence: biotinylated amino-terminal peptide of human GPRC5D on NeutrAvidin, culture supernatant of IgG-expressing cells (one concentration, not given), HRP anti-human Fab detection
T3 construct: Peptide Institute synthetic peptide; also called amino-terminal peptide of biotinylated human GPRC5D (disulfide bond present)
T3 peptide: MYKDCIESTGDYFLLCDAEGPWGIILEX
Procedure: as §1

binding result [1]: binds
binding result (human GPRC5D): binds
binding result [2]: binds
B1: IgG form of the human antibody C3015 (antibody, V domains shown)
VH: EVQLVESGGGVVQPGRSLRLSCAASGFTFRNYAMSWVRQAPGKGLEWVSGISGTGGSTYYADSVKGRFTISRDNSKDTLYLQLNSLRAEDTAVYYCAKSRSMSINYGMDVWGQGTTVTVSS
VL: SYELTQPPSVSVSPGQTVSITCSGDNLGDRYASWYQQKPGQSPVQVIYQDTKRPSGIPERFSGSNSGNTATLTISGTQAMDEADYYCQAWDSNTVVFGGGTKLTVLG
notes: Human IgG1; also called C3015 IgG form; full-length IgG form containing C3015
